Assay results reported in the RNAGym collection of RNA variant scans (doi:10.1073/pnas.2313332121).

B1: TPR t1 (parent)
chain: GACCAAUCUGCCCUCAGAGCUCGAGAACAUCUUCGGAUGCAGAGGAGGCAGGCUUCGGUGGCGCGAUAGCGCCAACGUCCUCAACCUCCAAUGCAUCCCACCACAUGAUGAUGCCUGAAGAGCCUUGGUUUUUUG

Variants of: B1
Experiment: polymerase ribozyme fitness, log enrichment relative to wild type (log ratio); higher = more active; in vitro selection for triplet polymerase activity
How it was run: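 After PCR construction and transcription, each subunit's mutant library from a heterodimeric triplet polymerase ribozyme was annealed with a biotinylated primer, the partner subunit and triplets. Incubation was frozen, at −7 °C, and extended constructs were gel-excised, bound to streptavidin beads and amplified by RT-PCR, in one selection round done in triplicate. Fitness is the logarithm of a genotype's enrichment divided by that of the wild type, from inverse-variance-weighted replicate averages of Illumina-sequenced inputs and outputs. The base of the logarithm is 2, and genotypes needed ≥10 input reads and ≥1 read per output.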

Row | Variant | polymerase ribozyme fitness (log ratio)
1 | GACCAAUCUGCCCUCAGAGCUCGAGAACAUCUUCGGAUGCAGAAGAGGCAGGCUUCGGUGGCGCGAUAGCGCCAACGUCCUCAACCUCCAAUGCAUCCCACCACAUGAUGAUGCCUGAGGAGACUUGGUUUUUUG [G44A A119G C123A] | 0.608
2 | GACCAAUCUGCCCUCAGAGCUCGAGAACAUCUUCGGAUGCAGAGGAGGUAGGCUUCGGUGGCGCGAUAGCCCCAACGUCCUCAACCUCCAAUGGAUCCCACCACAUGAUGAUGCCUGAAGAGCCUUGGUUUUUUG [C49U G71C C94G] | -2.87
3 | GACCAAUCUGCCCUGAGAGCUCGAGAACAUCUUCGGAUGCAGAGGAGGCAGGCUUCGGUGGCGCGAUAGCGCCAACGUGCUCAACCUCCAAUGCAUCCCACCACAUGAUGAUGCCUGAAGAGCCUUGGUUUUUUG [C15G C79G] | -4.93
4 | GACCAAUCUGCUCUCAGAGCUCGAGAACAUCUUCGGAUGCAGAGGAUGCAGGCUUCGGUGGCGCGAUAGCGCCAACGUCCUCCACCUCCAAUGCAUCCCACCACAUGAUGAUGCCUGAAGAGCCUUGGUUUUUUG [C12U G47U A83C] | -2.09
5 | GACCAAUCUGCCCUCAGAGCUCGAGAACAUCUUCGGAUGCAGAGGAGGCAGGCUUCGGUGGCGCGAUAGCGCCAACGUCCUCAUCCUCCAAUGCAUCCCACCACCUGAUGAUGCCCGAAGAGCCUUGGUUUUUUG [A84U A105C U116C] | -5.74
6 | GACCAAUCUGCCCUCAGAGCUCGAGAACAUCUUCGGAUGCAGAGGAGGCAGGCUUCGGUGGCGCGAUAGCGCCAACGUCCUCAACCUCCAAUGCAUCCCUCCACAUGAUGAUGCCUGAAGAGGCUUGGUUUUUUG [A100U C123G] | -1.75
7 | GACCAAUCUGCCCUCAGAGCUCGAGAACAUCUUCGGAUGCAGAGGAGGCAGGCUUCGGUGGCGCGAUAGCGCCUACGUCCUCAACCUCCAAUGCAUCCCACCACAUGACGAUGCCUGAAGAGCCUUGGUUUUUUG [A74U U109C] | -4.13
8 | GACCAAUCUGCCCUCUGAGCUCGAGAACAUCUUCGGAUGCAGAGGAGGCAGGCUUCGGUGGCGCGAUAGCGCCAACGUCCUCAACCUCCAAUGCAUCCCACCACAUUAUGAUGCCUGAAGAGCGUUGGUUUUUUG [A16U G107U C124G] | -4.06
9 | GACCAAUCUGCCCUCAGAGCUCGAGAACAUCUUCGGAUGCAGUGGAGGCAGGCUUCGGUGGCGCGAUAGCGCCAACGUCCUCAACCUCCAAGGCAUCCCACCACAUGAUGAUGCCUGAAGAGCCUUGGUUUUUUG [A43U U92G] | -1.81
10 | GACCAAUCUGCCCUCAGAGCUCGAGAACAUCUUCGGAUGCUGAGGAGGCAGGCUUCGGUGGCGCGAUAGCGCCAACGUCCUCAACCUCCAAUGCAUCCCACCACAUGAUCAUGCCUGAAGAGCCUUGGUUUUUUG [A41U G110C] | -4.99
11 | GUCCAAUUUGCCCUCAGAGCUCGAGAACAUCUUCGGAUGCCGAGGAGGCAGGCUUGGGUGGCGCGAUAGCGCCAACUUCCUCAACCUCCAAUGCAUCCCACCACAUGAUGAUGCCUGAAGAACCUUGGUUUUUUG [A2U C8U A41C C56G G77U G122A] | -2.93
12 | GACCAAUCUGCCCUCAGAGCUCGAGAACAUCUUCGGAUGCAGAGGAGGCAGGCUUCGGGGGCGCGAUAGCGCCAACGUCCUCAACCUCCAAUGCAGCCCACCACAUGAUGCUGCCUGAAGAGCCUUGGUUAUAUG [U59G U96G A111C U131A U133A] | -1.54
13 | GACCAAUCUGCCCUCAGCGCUCGAGAACAUCUUCGGAUGCAGAGGAGGCAGGGUUCGGUUGCGCGAUAGCGCCAACGUCCUCAACCUCCAAUGCAUCCCACCACAUGAUGAUGCCGGAAGAGCCUUGGUUUUUUG [A18C C53G G60U U116G] | -2.87
14 | GACCAAUCUGCCCUCAGAGCUCGAGAACAUCUUCGGAUGCAGAGGAGGCAGGCUUCGGUGUCGCGAUAGCGCCAACGGCCUCAACCUCCAAUGCAUCCCACCACAUGAUGAGGCCUGAAGAGCCUUGGUUUUUUG [G61U U78G U112G] | 0.877
15 | GACCAAUCUGCCUUCAGAGCUCGAGAACAUCUUCGGAUGCAGAGGAGGCUGGCUUCGGUGGCGCGAUAGCGCCAACGUCCUCAACCUGCAAUGCAUCCCACCACAUGAUGAAGCCUAAAGAGCCUUGGUUUUUUG [C13U A50U C88G U112A G117A] | -2.57
16 | GACCAAUGUGCCCUCAGAGCUCGGGAACAUCUUCGGAUGCAGAGGAGGCAGGCUUCGGUGGCGCGAUAGCGCCAACGUCCUCAACCUCCAAUGCAUCCCACCACAUGAUGAUGCCUGAAGAGCUUGGGUUUUUUG [C8G A24G C124U U126G] | -2.55
17 | GACCAAUCUGCCCUCAGAGCUCGAGAACAUCUUCGGAUGCAGAGGAGGCAGGCUUCGGUGGCACGAUAGCGCCAACGUCCUCAACCUCCAAUGCAUCCCACCACAUGAUGAUGCCUGAAGAGCCUUGGGUUUUUG [G63A U129G] | -0.825
18 | GACCAAUCUGCCCUCAGAGCUCGAGAACAUCUUCGGAUGCAGAGGAAGCAGGCUUCGGUGGCGCGAUAGCGCCAACGUCCUCAACCUCCAAUUCAUCCCACCACAUGAUGAUGCCUGAAGAGCCUUGGUUUUUUG [G47A G93U] | -2.71
19 | GACCAAUCUGCCCUCAGAGCUCGAGAACAUCUUCGGAUGCAGAGGAGGCAGGCUUCGGUGGUGCGAUAGCGCCAACGUCCUCAGCCUCCAAUGCAUCCCAACACAUGAUGAUGCCUGAAGAGCCUUGGUUUUUUG [C62U A84G C101A] | -1.66
20 | GACCAAUCUGCCCUCAGAGCUCGAGACCAUCUUCGGAUGCAGAGGAGGCAGGCUUCGGUGGUGCGAUAGCGCCAACGUCCUCAACCUCCAAUGUAUCCCACCACAUGAUGAUGCCUGAAGAGCCUUGGUUUUUUG [A27C C62U C94U] | -2.79
21 | GACCAAUCUCCCCUCAGAGCUCGAGAACAUCUUCGGAUGCAGAGGAGGCAGGCUUCGGUGGCUCGAUAGCGCCAACGUCCUCAACCUCCAAUGCAUCCCACCACAUGAUGAUGCCUGAAGAGCCUUGGUUUUUUG [G10C G63U] | -2.32

Row | Variant | polymerase ribozyme fitness (log ratio)
22 | GACCAAUCUGCCCUCAGAGCUCGAGACCAUCUUCGGAUGCAGAGGAGGCAGGCUUCGGUGGCGCGAUAGCGCCAACGUCCUCAACCUCCAAUGUAUCCCACCACAUGAUGAUGCCUGAAGAGCCUUGGUUUUUUG [A27C C94U] | -3.16
23 | GACCAAGCUGCCCUCAGAGCUCGAGAACAUCUUCGGAUGCAGAGGAGGUAGGCUUCGGUGGCGCGAUAGCGCCAACGUCUUCAACCUCCAAUGCAUCCCACCACAUGAUGCUGCCUGAAGAGCCUUGGUUUUUUG [U7G C49U C80U A111C] | -4.73
24 | GACCAAUCUGCCCUCAGAGCUCGAGAACAUCUUCGGAUCCAGUGGAGGCAGGCUUCGGUGGCGCGAUAGCGCCAACGUCCUCAACCUCCGAUGCAUCCCACCACAUGAUGAUGUCUGAAGAGCCAUGGUUUUUUG [G39C A43U A90G C114U U125A] | -2.64
25 | GACCAAUCUGCGCUCAGAGCUCGAGAACAUCUUCGGAUGCAGAGGAGGCAGGCUUCGGUGACGCGAUAGCGCCAACGUCCUCAACCUCCAAUGCAUCCCACCACAUGAUGAUGCCUGAAGAGCCUUGUUUUUUUG [C12G G61A G128U] | -1.84
26 | GACCAAUCUGCCCUCAGAGCUCGAGAACAUCCUCGGAUGCAGAGGAGGCAGGCUUUGGUGGCGCGAUAGCGUCAACGUCCUCAACCUCCAAUGCAUCCCACCACAUGAUGUUGCCUGAAGAGCCUUGGUUUUUUG [U32C C56U C72U A111U] | -3.66
27 | GACCAAUCUGUCCUCAGAGCUCGAGAACAUCUUCGGAUGCACAGGAGGCAGGCUUCGGUGGCGCGAUAGCGCCAACGUCCUCAACCUCCAAUGCAUCCCACCACAUGAUGAUGCCUGAAGAGCCUUGGUUUUUUG [C11U G42C] | -2.01
28 | GACCAAUCUGCCCUCAGAGCUCGAGAACAUCUUCGGAUGCAGAGGAGGCAGGCUUCGGUGGCGCGAUAGCGCCAACGUCGUCAACCUCCAAUGCAUCCCACCACAUGAUGAUGCCUGAAGAGCCUUGGUUUUUUG [C80G] | -5.78
29 | GACCAAUCAGCCCUCAGAUCUCGAGAACAUCUUCGGAUGCAAAGGGGGCAGGCUUCGGUGGCGCGAUAGCGCCAACGCCCUCAACCUCCAAUGCAUCCCACCACAUGAUGAUGCCUGAAGAGCCUUGGUUUUUUG [U9A G19U G42A A46G U78C] | -4.66
30 | GACCAAUCUGCCCUCAGCGCUCGAGAACAUCUUCGGAUGCAGAGGAGGCAGGCUUCGGUGGCGCGAUAGCUCCAACGGCCUCAACCUCCAAUGCAUCCCACCACAUGAUGAUGCCUGAAGAGCCUUGGUUUUUUG [A18C G71U U78G] | -4.63
31 | GACCAAUCUGCCCUCAGAGCUCGAGAACAUCUUCGGAUGCAGAGGAGGCAGGCUUCGGUGGCGCGAUAGCGCCAAGGUCCUCAACCUCCAAUGCGUCCCACCACAUGAUGAUGCCUGAAGAGCCUUGGUUUUUUG [C76G A95G] | -0.229
32 | GACCAAUCUGCCCUCAGAGCUCGAGAACAUCUUCGGAUGCAGAGGAGGCAGGCUUCGGUGGCGCGAUAGCGCGAACGUCCUCAACCUCCAAUGCAUCCCACCACAUGAUGAUGCCUGAACAGCCUUGGUUUUUUG [C73G G120C] | 0.461
33 | GACCAAUCUGCCCUCAGAGCUCGAGUACAUCUUCGGAUGCAGAGGAGGCAGGCCUCGGUGGCGCGAUAGCGCCAACGUCCUCAACCUCCAAUGCAUCCCACCACAUGAUGAUGCCUGAAGAGCCUUGGUUUUAUG [A26U U54C U133A] | -4
34 | GACCAAUCUGCCUUCAGAGCUCGAGAACGUCUUCGGAUGCAGAGGAGGCAGGCUUCGGUGGCGCGAUAGCGCCAACGUCCUCGACCUCCAAUGCAUCCCACCACAUGAUGAUGCCUGAAGAGCCUUGGUUUUUUG [C13U A29G A83G] | -1.83
35 | GACCAAUCUGCCCUCAGAGCUCGAGAACAUCUUCGGAUGCAGAGGGGGAAGGCUUCGGUGGCGCGAUAGCGCCAACGUCCUCAACCUCCAAUGCAUCCCACCACAUGAUGACGCCUGAAGAGCCUUGGUUUUUUG [A46G C49A U112C] | 1.28
36 | GACCAAUCUGCCCUCAGAGCUCGAGAACAUCUUCGGAUGCAGAGGAGCCAGGAUUCGGUGGCGCGAUAGCGCCAACGUCCUCAACCUCCAAUGCAUCCCACCACAUGAUGAUGCCUGAAGAGCUUUGCUUUUUUG [G48C C53A C124U G128C] | -3.02
37 | GACCAAUCUGCCCUCAGAGCUCGAGAACAUCUUCGGAUGCAGAGGAGGCAGGCUUCGGUGGCGCGAUAGCGCCAACGUCCUCAACCUCCAAUGCAUCCCACAACAUGAAGAUGCCUGAAGAGCCUUGGUUUUUUG [C102A U109A] | -5.92
38 | GACCAAUCUGCCCUCAGAGCUCGAGAACAUCUUCGGAUGCAGAGGAGGCAGGCUUCGGUGGCGCGAUAACGCCAACGACCUCAACCUCCAAUACAUCCCACCACAUGAUGAUGCCUGAAGAGCCUUGGUUUUUUG [G69A U78A G93A] | -4.02
39 | GACCAAUCUGCCCUCAGAGCUCGAGAACAUCUUCGGAUGCAUAGGAGGCAGUCAUCGGUGGCGCGAUAGCGCCAACGUCCUCAACCUCCAAUGCAUCCCACCACAUGAUGCUGCCUGAAGAACCUUGGUUUUUUG [G42U G52U U54A A111C G122A] | -5.42
40 | GACCAAUCUGCCCUCAGAGCUCGAGAACAUCUUCGGAUGCAGAGGAGACAGGCUUCGGUGGCGCGAUAGCGUCAACGUCCCCAACCUCCAAUGCAUCCCACAACAUGAUGAUGCCUGAAGCGCCUUGGUUUUUUG [G48A C72U U81C C102A A121C] | -0.882
41 | GACCAAUCCACCCUCAGAGCUCGAGAACAUCUUCGGAUGCAGAGGAGGCAGGCUUCGGUGGCGCGAUAGCGCCAACGUCCUCAACCUCCAAUACAUCCCACCACAUGAUGAUGCCUGAAGAGCCUUGGUUUUUUG [U9C G10A G93A] | -0.147
42 | GACCUAUCUGCCCUCAGAGCUCGAGAACAUCUUCGGAUGCAGAGGAGGCUGGCUUCGGUGGCGCGAUAGCGCCAACGUCCUCAACCUCCAAUGCAUCCCACCACUUGAUGAUGCCUGAGGAGCCUUGGUUUUUUG [A5U A50U A105U A119G] | -1.86
